Data on 1 molecule can be found in patent CN117643628A (SHANGHAI JUNSHI BIOSCIENCES CO LTD; JUNMENG BIOSCIENCES CO …, dated 2024).

The target of the experiment is SARS-COV-2野生型毒株Spike蛋白的RBD (SARS-COV-2野生型毒株, UniProt P0DTC2 319-541). Put plainly: BLI (Octet), antibody captured on Protein A probes, RBD at 15 nM and 60 nM in solution. A general note: In BLI a coated tip is dipped into the sample, and binding shifts an interference pattern.

B1: HUR33变体 (antibody, human IgG1, kappa, V domains shown)
VH: QVQLVQSGSELKKPGASVKVSCKASGYTFTDYGMNWVRQAPGQGLEWMGWINTYSGEPTYADDFRGRFVFSLDTSVSTAYLQISSLKAEDTAVYYCARGGNWDWYFDVWGQGTLVTVSS
VL: DIQMTQSPSSLSASVGDRVTITCRASQSVSNFLHWYQQKPGKAPKLLIYYASQSISGVPSRFSGSGSGTDFTLTISSLQPEDFATYYCQQSNTWPLTFGQGTKLEIKR
notes: also called HUR33-1; HUR33 variant
B1: the binding result was “binds”.
